Source: the DeepSol protein solubility set

test: soluble on expression in E. coli; label from the status in PepcDB or PDB records

| Sequence | soluble on expression in E. coli |
| --- | --- |
| QRISLEIMTLQPRCEDVETAEGVALTVTGVAQVKIMTEKELLAVACEQFLGKNVQDIKNVVLQTLEGHLRSILGTLTVEQIYQDRDQFAKLVREVAAPDVGRMGIEILSFTIKDVYDKVDYLSSLGKTQT | soluble |
| QRKVSVAGAITTMDPAQLEVPATNIVNTLAGRVAGVIGVQSSGEPGKNISEFWVRGIGTFGANSGALVLIDGLEGSLSQIDAADVESFSVLKDAAATAVYGSRGANGVVLVTTKRGLES | not soluble |
| QTLRALAERAARIEQDPAAGDYMSALRELPFIRELMAGRLPLQWAPARMVSDDPAKGLGKAPPAGLLTQQLRNILGEPRRTLDLVSPYFVPAEAGTQAFAALARGGAQVRVLTNALEATDVAVVHSGYAKRRKALLQAGVRLYEMRRSYAGPKPQGRGRFGSSGSSLHAKTFGVDGERVFIGSFNFDPRSANLNTELGFVIESPDMARHIAATFDQDIPAATYEVRLDDDGSLYWLE | not soluble |
| QTTKRIRDQEKATALQTAEMVAEAPMTAAALESGKKQKELQSYTKRVQKITGTEFVVVMDMNGIRKTHPDPSKIGKKFRGGDESEVLKGHVHISTASGTLGKSQRAFVPVYAENGKQVGAVAVGITVNEIDEVISHSLRP | not soluble |
| QVQLVESGGGLVQPGGSLRLSCATSGFTFTDYYMSWVRQPPGKALEWLGFIRNKANGYTTEYSASVKGRFTISRDNSQSILYLQMNTLRAEDSATYYCARDGSYAMDYWGQGTSVTVSSASTKGPSVFPLAPSSKSTSGGTAALGCLVKDYFPEPVTVSWNSGALTSGVHTFPAVLQSSGLYSLSSVVTVPSSSLGTQTYICNVNHKPSNTKVDKKVEP | soluble |
| QVTISITEDCPNNCIHCALPDTKNRAKLSPETVRDVIDQVLEMGTTFVIFDGGEPLTYPGLEELISYVDPEKAITGMFTSGVGLTEERARSLKAAGLYSLTVSFDSAYEEKHDYVRGRKGVFKSAVEAVKNGLAAGLLVNIYVVLSRDNVNELDELYNLAAGLGAHELSFYEIVPTGRWMDHASEIMTPKDMRK | not soluble |
| RAETAVQRTEDRYHNLVDTAPIPILLFDRDWKALYANEAAIAFLDADSFTEIAGKKASDFLHPDERDAARKRFQRLMREGVSVPEREYRVMTAEGEVKTATIATAPGYYRGEQVAQAMV | not soluble |
| RAKAFIDAANQYSINELYLISHALLETGNGTSALANGLTYNGKTVYNMYGIGAYDSNPNYYGAKYAYEQGWFTPEAAIIGGAKFIGSSYIHNTAYNQDTLYKMRWSATATHQYATDIGWAYKQVNRMYSLYSLLDG | not soluble |
| RATDPFIVKHPLTGEKTIIAGYPWFSDWGRDVMISFPGLVLIPRRFEDAKSILKNFSSNCRRGLIPNNFPAFGGEPVYNTVDASLWFIHSLSRYFAYTEDLLFLSDIWGTVEDIIDNYSKGTDFGIGMDSDYLIRQGPQLTWMDAKVNDIPVTPRAGKACEINALWYNALRTACRLGDLLGRDTSSYETLAAGVASNFERVFWNPENNCLHDIVSEDKAGNQIKDSSIRPNQIFAVSLPYTMLSPEKEKAIVDRVEKDLLTPFGLRTLSLDDPSYIGLYRGGSESRDSAYHNGTVWPWLLGPYVKAYRKVHNYSKKSLEDMRALLQGFDSHLETAGIGTISEVFDGDFPHSPGGCIAQAWSVAEILRAYVEDVLGIKP | not soluble |
| REINGATRWIPLGPLNFQPTELFKLAVILYLASLFTRREEVLRSMESLGWQSIWRGTANLIMSATNPQARRETLEMYGRFR | not soluble |
| REKGIVEPSCGVTANAIMKLFLDKDGFSYCFENEQTLSLEQLQERLSCMPECKSFVLRVNDGALGHAYIVDIPKGENSCRPAFLYQSDLGEGVTRKLRFEDWMTHKALTPILLDDICNYFSCMSQNKTDLEQIATLFDIDGNVKMLRKENIQYQKHDNFSFQLFEYDTDNIEKNIEIIKSLCSGAAALEHHHHHH | soluble |
| RESITDSRMAYRTISPFLTDLPQEEMWVLLLNQSGKIISMENLSRGGVSETSADVRLIMHKAVSHLASAIILAHNHPSGTVRPSEQDIQLTQRVQKAATLLGFRLNDHLIIGDDGAYFSFADEGLL | not soluble |
| RGSHHHHHHGSAVQVTFTVQKGSDPKKLVLDIKYTRPGDSLAEVELRQHGSEEWEPLTKKGNVWEVKSSKPLVGPFNFRFMSKGGMRNVFDEVIPTAFSIGKTYKPEE | soluble |
| RHAGVVTAVERHGESLLEVTCRLQGDWSHRAGQFAFLTCDRLEGAHPFTIASADRGCGEVRFSIKALGDYTRRLQDNLEVGARVEVEGPYGCFDFRRGLAGRQVWVAAGIGVTPFIAWLESLQAAPESAPSVELHYCVRNSQEALFAGRLRELCEH | not soluble |
| RHVTGVHSPTKPASYSVKWTIEEKELFEQGLAKFGRRWTKISKLIGSRTVLQVKSYARQYFKNKVKCGLDKETPNQKTGHNLQVKNEDKGTKAWTPSCLRGRADPNLNAVKIEKLSDDEEVDITDEVDELSSQTPQKNSSSDLLLDFPNSKMHETNQGEFIASDSQEALFSKSSRGCLQNEKQDETLSSSEITLWTEKQSNGDKKSIELNDQKFNELIKNCNKHDGRGIIVDARQLPSPEPCEIQKNLNDNEMLFHSCQMVEESHEEEELKPPEQEIEIDRNIIQEEEKQAIPEFFEGRQAKTPERYLKIRNYILDQWEICKPKYLNKTSVRPGLKNCGDVNCIGRIHTYLELIGAINFGCEQAVYNRPQTVDKVRIRDRKDAVEAYQLAQRLQSMRTRRRRVRDPWGNWCDAKDLEGQTFEHLSAEELAKRREEEKGRPVKSLKVPRPTKSSFDPFQLIPCNFFSEEKQEPFQVKVASEALLIMDLHAHVSMAEVIGLLGGRYSEVDKVVEVCAAEPCNSLSTGLQCEMDPVSQTQASETLAVRGFSVIGWYHSHPAFDPNPSLRDIDTQAKYQSYFSRGGAKFIGMIVSPYNRNNPLPYSQITCLVISEEISPDGSYRLPYKFEVQQMLEEPQWGLVFEKTRWIIEKYRLSHSSVPMDKIFRRDSDLTCLQKLLECMRKTLSKVTNCFMAEEFLTEIENLFLSNYKSNQENGVTEENCTKELLM | soluble |
| RKPSFLALPGHLVKSEETVILQCWSDVMFEHFLLHREGKFNNTLHLIGEHHDGVSKANFSIGPMMPVLAGTYRCYGSVPHSPYQLSAPSDPLDMVIIGLYEKPSLSAQPGPTVQAGENVTLSCSSRSSYDMYHLSREGEAHERRLPAVRSINGTFQADFPLGPATHGGTYRCFGSFRDAPYEWSNSSDPLLVSVT | soluble |
| RKPTALIILDGFGLREETYGNAVAQAKKPNFDGYWNKFPHTTLTACGEAVGLPEGQMGNSEVGHLNIGAGRIVYQSLTRVNVAIREGEFDKNETFQSAIKSVKEKGTALHLFGLLSDGGVHSHMNHMFALLRLAAKEGVEKVYIHAFLDGRDVGPKTAQSYIDATNEVIKETGVGQFATISGRYYSMDRDKRWDRVEKCYRAMVNGEGPTYKSAEECVEDSYANGIYDEFVLPSVIVNEDNTPVATINDDDAVIFYNFRPDRAIQIARVFTNGDFREFDRGEKVPHIPEFVCMTHFSETVDGYVAFKPMNLDNTLGEVVAQAGLKQLRIAETEKYPHVTFFFSGGREAEFPGEERILINSPKVATYDLKPEMSIYEVTDALVNEIENDKHDVIILNFANCDMVGHSGMMEPTIKAVEATDECLGKVVEAILAKDGVALITADHGNADEELTSEGEPMTAHTTNPVPFIVTKNDVELREDGILGDIAPTMLTLLGVEQPKEMTGKTIIK | soluble |
| RKRYYNTIEDMKGKIRVYCRIRPLNEKESSEREKQMLTTVDEFTVEHPWKDDKRKQHIYDRVFDMRASQDDIFEDTKYLVQSAVDGYNVCIFAYGQTGSGKTFTIYGHESNPGLTPRATKELFNILKRDSKRFSFSLKAYMVELYQDTLVDLLLPKSARRLKLEIKKDSKGMVFVENVTTIPISTLEELRMILERGSERRHVSGTNMNEESSRSHLILSVVIESIDLQTQSAARGKLSFVDLAGSERVKKSGSAGNQLKEAQSINKSLSALGDVIGALSSGNQHIPYRNHKLTMLMSDSLGGNAKTLMFVNVSPAESNLDETYNSLLYASRVRTIVNDPSKHISSKEMVRLKKLVAYWKEQAGKKGEEEDLVDIEEDRTRKDEADS | soluble |
